Key:
yeast hexokinase (HK) = biological target: T1, yeast hexokinase (HK) (Saccharomyces cerevisiae, UniProt P04807); experiment: coupled G6PDH assay, NADH formation; format: biochemical; conditions: inhibition by product; 0.15-20 mM ADP, 30 °C, pH 7.5
T1 construct: gene HXK2; commercial preparation containing predominantly the PII isoform (HXK2); may contain some PI
T1 sequence (P04807 2-486): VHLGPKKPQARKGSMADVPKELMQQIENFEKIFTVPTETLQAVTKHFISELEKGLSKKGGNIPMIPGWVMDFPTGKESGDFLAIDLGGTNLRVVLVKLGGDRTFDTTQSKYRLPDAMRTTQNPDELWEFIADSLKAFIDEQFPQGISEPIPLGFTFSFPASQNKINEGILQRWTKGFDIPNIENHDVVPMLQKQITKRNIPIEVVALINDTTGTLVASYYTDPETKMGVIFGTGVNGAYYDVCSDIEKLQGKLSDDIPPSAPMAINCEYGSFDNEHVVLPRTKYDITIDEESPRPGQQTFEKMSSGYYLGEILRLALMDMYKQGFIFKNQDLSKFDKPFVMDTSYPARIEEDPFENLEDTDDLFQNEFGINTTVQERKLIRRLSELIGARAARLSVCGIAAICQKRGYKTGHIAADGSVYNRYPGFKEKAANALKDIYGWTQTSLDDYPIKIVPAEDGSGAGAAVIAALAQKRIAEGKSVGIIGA

[1] = substrate: Nc1ncnc2c1ncn2[C@@H]1O[C@H](COP(=O)(O)OP(=O)(O)OP(=O)(O)O)[C@@H](O)[C@H]1O; experiment: coupled G6PDH assay, NADH formation; format: biochemical, Saccharomyces cerevisiae; conditions: 200 mM glucose, 10 mM MgCl2, 50 mM sodium phosphate pH 7.5, 30 °C
Text: coupled G6PDH assay, NADH formation on yeast hexokinase (HK)

[2] = substrate: Nc1ncnc2c1ncn2[C@@H]1O[C@H](COP(=O)(O)OP(=O)(O)O)[C@@H](O)[C@H]1O; experiment: luciferase ATP determination assay; format: biochemical, Pseudomonas aeruginosa; conditions: 0-20 mM ADP, 10 mM sodium polyphosphate (Graham's salt), 10 mM MgCl2, sodium phosphate pH 7.5, 30 °C

In the case of `Nc1ncnc2c1ncn2[C@@H]1O[C@H](COP(=O)(O)OP(=O)(O)O)[C@@H](O)[C@H]1O` [ADP], the relative activity (yeast hexokinase (HK)) is reported as “ADP lowered the reaction even at small concentrations”.

B1: yeast hexokinase (HK) (Saccharomyces cerevisiae S288C) (protein)
chain: T1 sequence (P04807 2-486)
notes: commercial preparation containing predominantly the PII isoform (HXK2); may contain some PI
For B1, the Km [1] was 1107 ± 74 µM and the Vmax [1] was 33 µM/min.

B2: PPK2 (Pseudomonas aeruginosa PAO1) (protein)
chain: MDSYGDTSGRIGRDWLDRHDEELEQELLDDELNLDELFGPEQEDAPGELSRRRYFRELFRLQRELVKLQNWVVHTGHKVVILFEGRDAAGKGGVIKRITQRLNPRVCRVAALPAPNDREQTQWYFQRYVSHLPAGGEIVLFDRSWYNRAGVERVMGFCNDEQYEEFFRSVPEFEKMLARSGIQLLKYWFSISDAEQHLRFLSRIHDPLKQWKLSPMDLESRRRWEAYTKAKETMLERTHIPEAPWWVVQADDKKRARLNCIHHLLQQMPYREVPQPPVHLPERLRHADYVRHPTPGEIIVPEVY
notes: about 39 kDa; E. coli BL21 (DE3)
In the case of B2, the Km [2] is reported as 23 ± 5.9 µM.
